# The nanobody polyreactivity screen of Harvey et al. (2022)
# Assay: yeast display, Sf9 membrane polyspecificity reagent, FACS + sequencing; frameworks hold sequencing errors
# Summary of the method: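 Genes from sorted yeast were amplified by colony PCR, read by MiSeq 2 × 250 sequencing and filtered on CDR length. These cells carried a synthetic nanobody library in Saccharomyces cerevisiae BJ5465 and were sorted by FACS into low and high (top ~1%) gates on anti-HA and streptavidin fluorescence. Polyreactivity is labelled according to the gate of origin.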
row,Sequence,polyreactivity (PSR sort gate)
1,QVQLVESGAGLVQAGGSLRLSCAASGTTFWKYVMGWYRQAPGKERELVAAITSRGGSTYADSVKGRFTISRDNAKNSVYLQMNSLKPEDTAVYYCAATKFWYYGYDYWGQGTQVTVSS,low polyreactivity
2,QVQLVESGAGLVQAGGSLRLSCAASGYIFRQYAMGRYRQAPGTEREFVAAISQTGGSTYYADSVKRRFTLSRDNAKNTVYFQMNSLKPVDTAVYYCAARYRGQRYRKLDYWGQGTQVTVSS,high polyreactivity
3,QVQLVESGAGLVQAGGSLRLSCADSGSTFQPYAMGWYRQAPGKEREFVATISGSAGSKYYADSVKGRFKISRDNAKNTVYLQKNSLKPEDTAVYYCNADSGWFGYDYWGQGTQVTVSS,low polyreactivity
4,QVQLVESGAGLVQAGGSLRLSCPASGYIFWWTALGWSRQQPGKERELVAGISWSGSTTYYADSVKGRFTISRDNAKNTVYLQMNSLNPEDTAVYYCNAADITLYDYDYWGQGTQVTVSS,low polyreactivity
5,QVQLVESGAGLVQAGVSLRLSCAASGSILTDSAMGWYIQAPGKERELVATISNGGSTNYADSVKGRFTISRDNAKNTVYLKMNSLKPEDTAVYYCNAEPGVPSWELDYWGQGTQVTVSS,low polyreactivity
6,QVQLVESGAGLVQARGSLRLSCAASGIILYVNAMGWYRQAPGKERELVAAISWGGGSTYYADSVKGRFTISRDNAKNNVYLQMNSLKPEDTAVYYCAAEFWSGYPTYTYDFWGQGTQVTVSS,low polyreactivity
7,QVQLVESGAGLVQEGGSLRLICAASGRTFRGSDMGWYSPAPGKERELVAAITSGGSTNYADSVKGRFTISRDNAKNTVYLHMNSLKPEDPAVYYCNRDTSKYGLWRYIYDYWGQGTQVNVSS,low polyreactivity
8,QVQLVESGEGLVQARGSLRLSCAASGYTFLGYAMGWYRQAPGKERELVAAINRSGSSTYYADSVKGRFTISRDNAKNTVYLQMNSLKPEDTAVYYCNARSGNRYGPRYDYWGQGTKVTVSS,high polyreactivity
9,QVQLVESGGALDQAGGSLRLSCAASGRIFKWYAKGWYRQAPGKERELVATISWSGGSTYYADSVKGRFTISRDNAKKTVYLQMNSLKPEDTAVYYCNADTWLALPGFDYWGQGTQVTVSS,high polyreactivity
10,QVQLVESGGALLQAGGSLRLSCAASGGTFDTYAMGWYRQAPGKERELDAVIRASGGDTYYADSVKGRFTISRDNAKNTVYLQMNSLKPEDTAVYYCAAVLPFKYDYWGQGTQVTVSS,low polyreactivity
11,QVQLVESGGALLQAGGSLRLSCSASGRIFSANAMGWYRPAPGKERELVAAITYSGATTYYADSVKGRFTISRDNAKNTVYLQMTSLKPEDTAVYDCAADAGYTHYTAEEEYWGQGTQVTVSS,low polyreactivity
12,QVQLVESGGALVQAGGILRLSCAASGRTFQYNVMGWYRQAPGKEREFVAAITWNGGSTYYADSVKGRFTISRDKAKNTVYLQMISLKPEDPAVYYCAARWTKKLEYGYWGQGTQVTVSS,low polyreactivity
13,QVQLVESGGALVQAGGRLRLSCAASVYIQHKYAMGRYRQAPGKERDLVATISGGGGSTYYADSVKGRFTISRDNAKNTVYLQMNSLKPEDTSVYYCAKEYPWLPRSYEYWGQGTQVTVSS,low polyreactivity
14,QVQLVESGGALVQAGGSLRLNCAASGRIFVYNDMGWYRQAPGNERDLVAAISSVGTTYYADSVKGRFTISRDNAKFTVYLQMKTLKPVETAVYDCDVTRYHSPPRYYFWGQGSQVTVSS,low polyreactivity
15,QVQLVESGGALVQAGGSLRLSCAASGFTFAFYAMGWYRQAPGKERELVAAISSRGGSTYYADSVKGRFTISRDNAKITVYLQMNSLKPEDTAVYYCAARGYYSVVEYYYWGQGTQVTVSS,high polyreactivity
16,QVQLVESGGALVQAGGSLRLSCAASGFTFSAYAMGWYRQAPVKEREMVASISRGGITNYADSVKGRFTISRDNAKNTVYLQMNSLQPEDTAFYYCAVDYSFRYDYVQRYYYWGQGTQVSVSS,high polyreactivity
17,QVQLVESGGALVQAGGSLRLSCAASGIIFTPYAMGWYRQAPGKERQLLAAISWSGGRTYYADSVKGRFTISRDNAKNTVYLQMNSLKPEATAVYYCNARRYWWPHYYEYDYWGQGTHVTVSS,high polyreactivity
